How the values were obtained:
[1] = biological target: T1, VPS4A MIT domain, recombinant (His6-VPS4 MIT) (UniProt Q9UN37 2-80); test: SPR
T1 sequence (looked up): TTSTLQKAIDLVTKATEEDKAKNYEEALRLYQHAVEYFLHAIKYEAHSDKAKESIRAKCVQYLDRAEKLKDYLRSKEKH

[2] = biological target: T2, human spastin MIT domain (residues 112-195), purified (human, UniProt Q9UBP0-1 112-195); test: SPR
T2 sequence (looked up): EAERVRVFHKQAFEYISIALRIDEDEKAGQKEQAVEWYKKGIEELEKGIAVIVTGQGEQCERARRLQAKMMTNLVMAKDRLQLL

B1: polyhistidine-tagged CHMP1B-CTR (residues 126-199), wild type (domain or fragment, human, UniProt Q7LBR1 126-199, looked up)
chain: DVQTQQMEDTMSSTTTLTTPQNQVDMLLQEMADEAGLDLNMELPQGQTGSVGTSVASAEQDELSQRLARLRDQV
Work on B1 yielded a Kd [1] of 33 µM and a Kd [2] of 12 µM.

Source: PMC2593743 (Nature structural & molecular biology, 2008)
